Drawing on patent US20190262368A1, this text covers IC50, IC50 (Mean) of oxLDL internalisation in hLOX1 CHO cells; row label missing, taken by the order of Table 5 and IC50 (Mean) of oxLDL-dependent ROS generation in hLOX1 CHO cells; row label missing, taken by the order of Table 5 for one substance.

For experiment [1], the target named is recombinant human LOX1 (R&D Systems) (human) (UniProt P78380). As to the kind of experiment: row label missing; by the order of Table 5 taken as CRP/hLOX1 competition (plate assay, biotin CRP as competitor, immobilised recombinant hLOX1), Mean.
For experiment [2], the target named is human LOX1 on cells (human LOX1 transfected CHO TREX cells; endogenous on HAECs) (human) (UniProt P78380). As to the kind of experiment: cell-based or functional assay.
Experiment [3] concerns the target human LOX1 SNP K167N variant on transfected CHO TREX cells (human) (UniProt P78380). As to the kind of experiment: row label missing; by the order of Table 5 taken as oxLDL/K167N hLOX1 CHO competition (FMAT, DyLight 649 oxLDL as competitor), Mean.
For experiment [4], the target named is human LOX1 on cells (human LOX1 transfected CHO TREX cells; endogenous on HAECs) (human) (UniProt P78380). Description: row label missing; by the order of Table 5 taken as AGE BSA/hLOX1 CHO competition (FMAT, DyLight 649 AGE-BSA as competitor), Mean.
The target is the same in experiment [5]. Description: row label missing; by the order of Table 5 taken as oxLDL/hLOX1 CHO competition (FMAT, DyLight 649 oxLDL as competitor), Mean.

As usually defined, the IC50 is the concentration at which inhibition is half-maximal. Regarding “23C11, commercially available mouse anti-LOX-1 antibody”, the IC50 came out at 11.1 nM in experiment [1], 1.31 nM in experiment [3], 1.15 nM in experiment [4] and 2.2 nM in experiment [5]. Further, in experiment [2], the IC50 (Mean) of oxLDL internalisation in hLOX1 CHO cells; row label missing, taken by the order of Table 5 is 2.85 nM. Further, the IC50 (Mean) of oxLDL-dependent ROS generation in hLOX1 CHO cells; row label missing, taken by the order of Table 5 in experiment [2] is 10.1 nM.
